Data published in patent US20130079286A1 (Pieris, published 2013).

T1: ovalbumin (UniProt P01012 2-386)
T1 sequence (looked up): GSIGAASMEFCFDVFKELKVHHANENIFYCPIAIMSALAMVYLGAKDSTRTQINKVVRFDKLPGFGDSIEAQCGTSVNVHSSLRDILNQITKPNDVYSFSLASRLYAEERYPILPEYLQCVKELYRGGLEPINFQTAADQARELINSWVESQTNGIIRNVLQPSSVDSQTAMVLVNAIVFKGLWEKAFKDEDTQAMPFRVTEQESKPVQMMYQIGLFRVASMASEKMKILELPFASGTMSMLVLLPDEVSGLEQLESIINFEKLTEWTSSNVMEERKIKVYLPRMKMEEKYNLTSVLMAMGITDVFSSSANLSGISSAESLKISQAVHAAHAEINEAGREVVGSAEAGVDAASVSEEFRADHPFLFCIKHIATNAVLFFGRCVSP


Legend:
[1] = target: T2, recombinant fibronectin single domain ED-B (human); experiment: SPR (BIAcore X), ED-B amine-coupled (about 180 RU), mutein as analyte
T2 construct: the entry may be a nucleic acid; also called extra domain-B; extra-domain B
Description: (§1) FIG. 27 depicts the kinetic real time analysis of Lcn2 variants N7A (A), N7E (B), N9B (C) and N10D (D) measured on a Biacore X instrument. The single fibronectin domain ED-B was coupled via amine chemistry to a CMD 200 m sensor chip (ΔRU=180) and the purified Lcn2 variants were applied at varying concentrations. The measured signals are shown as traces together with the curve fits.
(§2) Real time interaction analysis of Lcn2 muteins was performed on a BIAcore X instrument using HBS/ET (20 mM Hepes, pH 7.5, 150 mM NaCl, 1 mM EDTA containing 0.005% (v/v) Tween 20) as running buffer. 100 μg/ml solution of recombinant ED-B in 10 mM Na-acetate, pH 4.0 was immobilized on a CMD 200 m Sensorchip using standard amine coupling chemistry, resulting in a ligand density of about 180 resonance units (RU). The purified Lcn2 mutein was applied at a flow rate of 25 μl/min at concentrations of 2.5 up to 160 nM. The sensorgrams were corrected by subtraction of the corresponding signals measured for the control channel, which had been activated and blocked with ethanolamine. […] In the case of N10D the heterogeneous analyte competing reaction model was used for data fitting, resulting in two sets of kinetic constants.

[2] = target: T3, recombinant human fibronectin fragment FN7B8 (human, UniProt P02751 1173-1448); experiment: ELISA: FN7B8 coated, mutein titrated, detected via Strep-tag II
T3 construct: no separate number is printed for the protein, so the entry may be a nucleic acid

[3] = target: T3, recombinant human fibronectin fragment …; experiment: SPR (BIAcore X), FN7B8 amine-coupled (about 500 RU), mutein as analyte
Source text: (§3) FIG. 13 depicts the kinetic real time analysis of Lcn2 mutein N9B measured on a Biacore instrument. FN7B8 was coupled via amine chemistry to a CMD 200 m sensor chip (ΔRU=500) and the purified Lcn2 mutein was applied at varying concentrations. The measured signal is shown as a grey line whereas the curve fit is depicted as a black line in each case.
as §3, with “14” for “13”, “N7E” for “N9B”
Real time analysis of Lcn2 muteins was performed on a BIAcore X system (BIAcore, Uppsala, Sweden) using HBS/ET (20 mM Hepes, pH 7.5, 150 mM NaCl, 1 mM EDTA containing 0.005% (v/v) Tween 20) as running buffer. 200 μg/ml solution of recombinant FN7B8 in 10 mM Na-acetate, pH 4.0 was immobilized on a CMD 200 m Sensorchip (XanTec bioanalytics, Duesseldorf, Germany) using standard amine coupling chemistry (Biacore, Uppsala, Sweden), resulting in a ligand density of about 500 resonance units (RU). The purified Lcn2 mutein was applied at a flow rate of 25 μl/min at concentrations of 2.5 up to 160 nM. The sensorgrams were corrected by subtraction of the corresponding signals measured for the control channel, which had been activated and blocked with ethanolamine.

[4] = target: T2, recombinant fibronectin single domain …; experiment: SPR (BIAcore X), ED-B immobilised by amine coupling, Lcn2 mutein injected at 0 to 160 nM, 1:1 model
Description: as §1, §2

[5] = target: T4, biotinylated Aβ40 peptide (human, C-terminal biotin group attached via a lysine spacer); experiment: capture ELISA: mutein captured via Strep-tag II on StrepMAB-Immo, biotinylated Aβ40 titrated
T4 construct: Synthetic peptide (Peptide Speciality Laboratory) with a C-terminal biotin on a lysine spacer; used in the capture ELISAs
Description: (§4) FIG. 5 depicts the binding activity of the Lcn2 muteins H1-G1, S1-A4, and US7 in capture ELISAs with different biotinylated Aβ targets. StrepMAB-Immo at 10 μg/ml was immobilized on microtitre plates and employed for capturing of 1 JAM Lcn2 muteins via the Strep-tag H. In figures A to C the binding of the Lcn2 muteins S1-A4 and US7 to (A) biotinylated Aβ40, (B) biotinylated Trx-Aβ28, and (C) biotinylated MBP-Aβ40 are shown. Binding was detected by incubation with ExtrAvidin/AP and a subsequent chromogenic reaction with pNPP. Ovalbumin (Ova), thioredoxin (Trx), and maltose binding protein (MBP) were used as negative controls. Additionally, binding of wild-type (wt) lipocalin was tested. The data were fitted to a monovalent binding model.
(§5) For selective capturing of the Lcn2 muteins carrying the C-terminal Strep-tag II (Schmidt and Skerra (2007) Nat. Protoc. 2, 1528-1535), a 96-well MaxiSorp polystyrene microtitre plate (Nunc, Langenselbold, Germany) was coated with 10 μg/mL StrepMAB-Immo (IBA, Göttingen, Germany) in PBS over night at 4° C. and blocked with 3% (w/v) BSA in PBS/T at room temperature for 1 h. After 3 washing steps with PBS/T, 50 μL of a 1 μM solution of the purified Lcn2 muteins from Example 7 were applied to all wells for 1 h. After washing, 50 μL of a dilution series of the biotinylated targets Aβ40, MBP-Aβ40 or Trx-Aβ28 from Example 2 were added and incubated for 1 h whereby the biotinylated forms of Ova, MBP and Trx from Example 2 served as negative control proteins. The wells were washed again and bound conjugate was detected with 50 μL of ExtrAvidin/AP conjugate (Sigma-Aldrich, Steinheim, Germany) diluted 1:5000 in PBS/T for 1 h, followed by signal development in the presence of 100 μL 0.5 mg/mL p-nitrophenyl phosphate (AppliChem, Darmstadt, Germany) in 100 mM Tris/HCl, pH 8.8, 100 mM NaCl, 5 mM MgCl₂.

[6] = target: T1, ovalbumin; experiment: capture ELISA: 1 µM Lcn2 protein captured via Strep-tag II on coated StrepMAB-Immo, biotinylated target titrated, ExtrAvidin/AP + pNPP
Description: as §4, §5

[7] = target: T5, Trx-Aβ28 fusion protein (Escherichia coli (strain K12), UniProt P0AA25 1-76 = thioredoxin, Biotin-labelled through an NHS ester (2:1) in the capture and competitive ELISAs; unlabeled in the direct ELISA and as competitor.); experiment: capture ELISA: mutein captured, biotinylated Trx-Aβ28 titrated
T5 construct: the entry may be a nucleic acid; also called TrxAbeta28H6
Description: as §4, §5

[8] = target: T4, biotinylated Aβ40 peptide; experiment: capture ELISA: mutein captured via Strep-tag II, biotinylated Aβ40 titrated
Description: (§6) FIG. 19 depicts the binding activity of the Lcn2 muteins H1GA, H1GV, and H1-G1 in capture ELISAs with the biotinylated Aβ targets Aβ40 (A) and Trx-Aβ28 (B). StrepMAB-Immo was immobilized at 10 μg/ml on microtitre plates and employed for capturing of 1 μM Lcn2 muteins via the Strep-tag H. Binding of the biotinylated targets, applied in a dilution series, was then detected by incubation with ExtrAvidin/AP and a subsequent chromogenic reaction with pNPP. […] The data were fitted to a monovalent binding model.

[9] = target: T5, Trx-Aβ28 fusion protein; experiment: direct ELISA: Trx-Aβ28 coated, mutein titrated, detected via Strep-tag II
Description: The Aβ targets Trx-Aβ28 and MBP-Aβ40 as well as the control protein maltose binding protein (MBP) were immobilized at 2 μM in PBS over night. Bound Lcn2 muteins were detected via their Strep-tag II using Streptavidin/AP followed by a chromogenic reaction with pNPP. As a control, the binding of wild-type (wt) lipocalin was tested. The data were fitted to a monovalent binding model.
Alternatively, for a “direct” ELISA, 2 μM unlabeled Aβ40 target from Example 2 was adsorbed onto a 96-well MaxiSorp polystyrene microliter plate (Nunc, Langenselbold, Germany) and incubated with the purified Lcn2 mutein, which was detected via the Strep-tag II using a 1:1500 dilution of Streptavidin/AP conjugate (GE Healthcare UK Ltd, Buckinghamshire, UK). As a control, 2 μM MBP from Example 2 was adsorbed onto the ELISA plate. Absorption at 405 nm was measured in a SpectraMax 250 reader (Molecular Devices, Sunnyvale, USA).

[10] = target: T5, Trx-Aβ28 fusion protein; experiment: capture ELISA: mutein captured via Strep-tag II, biotinylated Trx-Aβ28 titrated
Description: as §6

[11] = target: T2, recombinant fibronectin single domain …; experiment: SPR (BIAcore X), ED-B amine-coupled; heterogeneous analyte competing reaction model, first set
Description: as §2

[12] = target: T2, recombinant fibronectin single domain …; experiment: SPR (BIAcore X), ED-B amine-coupled; heterogeneous analyte competing reaction model, second set
Description: as §2

[13] = target: T6, recombinant human fibronectin fragment FN789 (human, UniProt P02751 1173-1539); experiment: ELISA on coated protein
T6 construct: the entry may be a nucleic acid

[14] = target: T7, BSA (bovine, UniProt P02769 25-607); experiment: ELISA on coated protein
T7 construct: also called bovine serum albumin
T7 sequence (P02769 25-607 limits assumed): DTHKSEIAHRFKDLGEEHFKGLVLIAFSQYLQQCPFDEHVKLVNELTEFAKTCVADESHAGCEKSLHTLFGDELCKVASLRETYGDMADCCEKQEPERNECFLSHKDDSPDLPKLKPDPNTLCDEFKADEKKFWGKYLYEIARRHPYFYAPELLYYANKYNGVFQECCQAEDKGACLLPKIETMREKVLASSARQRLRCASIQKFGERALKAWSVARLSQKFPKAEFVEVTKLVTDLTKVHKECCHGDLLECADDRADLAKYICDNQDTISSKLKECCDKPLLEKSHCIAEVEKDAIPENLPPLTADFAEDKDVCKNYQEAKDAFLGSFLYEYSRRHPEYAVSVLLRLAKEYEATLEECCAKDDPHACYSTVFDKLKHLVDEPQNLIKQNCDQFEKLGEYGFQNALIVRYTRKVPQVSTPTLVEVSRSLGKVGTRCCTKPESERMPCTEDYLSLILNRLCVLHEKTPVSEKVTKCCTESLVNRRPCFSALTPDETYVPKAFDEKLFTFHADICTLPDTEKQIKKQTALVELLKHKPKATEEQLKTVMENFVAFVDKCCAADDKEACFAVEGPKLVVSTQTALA

T3 sequence (P02751 other isoform, or with tags, fused parts or gaps limits assumed): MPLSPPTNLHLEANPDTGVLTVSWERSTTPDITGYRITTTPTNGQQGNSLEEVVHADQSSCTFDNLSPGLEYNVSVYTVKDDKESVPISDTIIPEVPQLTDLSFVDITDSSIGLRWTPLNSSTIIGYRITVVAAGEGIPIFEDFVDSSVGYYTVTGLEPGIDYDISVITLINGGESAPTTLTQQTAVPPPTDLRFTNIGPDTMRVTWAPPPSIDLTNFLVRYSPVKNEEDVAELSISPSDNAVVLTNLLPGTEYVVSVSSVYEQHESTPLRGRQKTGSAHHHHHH
T2 sequence (chain, as listed by the source limits assumed): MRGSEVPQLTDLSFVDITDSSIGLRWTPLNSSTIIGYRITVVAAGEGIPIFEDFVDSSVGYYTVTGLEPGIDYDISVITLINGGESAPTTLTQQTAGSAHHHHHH
T6 sequence (P02751 other isoform, or with tags, fused parts or gaps limits assumed): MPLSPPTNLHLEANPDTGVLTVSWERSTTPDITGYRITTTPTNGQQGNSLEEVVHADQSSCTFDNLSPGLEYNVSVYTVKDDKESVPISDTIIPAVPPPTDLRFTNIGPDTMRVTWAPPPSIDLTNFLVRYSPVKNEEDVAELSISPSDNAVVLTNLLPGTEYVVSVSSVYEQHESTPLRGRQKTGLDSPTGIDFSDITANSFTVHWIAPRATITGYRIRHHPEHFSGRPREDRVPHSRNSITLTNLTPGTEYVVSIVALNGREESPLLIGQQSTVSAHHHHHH
T4 sequence (peptide, as listed by the source): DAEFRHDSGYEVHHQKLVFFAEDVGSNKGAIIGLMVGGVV

Binder | Kd [1] [nM] | koff [1] [s⁻¹] | kon [1] [M⁻¹ s⁻¹] | Kd [2] [nM] | Kd [3] [nM] | koff [3] [s⁻¹] | kon [3] [M⁻¹ s⁻¹] | Kd [4] [nM] | Kd [5] [nM] | binding result [6] | Kd [7] [nM] | Kd [8] [nM] | Kd [9] [nM] | Kd [10] [nM] | koff [11] [s⁻¹] | kon [11] [M⁻¹ s⁻¹] | koff [12] [s⁻¹] | kon [12] [M⁻¹ s⁻¹] | binding result [13] | binding result [14]
Lcn2 mutein N7E (designed binder) QDSTSDLIPAPPLSKVPLQQNFQDNQFHGKWYVVGEAGNSLLREDKDPRKMYATIYELKEDKSYNVTSVRFRSKKCHYLIRTFVPGSQPGEFTLGLIKSKPGHTSFLVRVVSTNYNQHAMVFFKTVAQNREYFFITLYGRTKELTSELKENFIRFSKSLGLPENHIVFPVPIDQCIDG | 17.3 | 0.054 | 3.1e+06 | 30 | 7.2 | 0.03 | 4.1e+06 | 17 | – | – | – | – | – | – | – | – | – | – | – | –
Lcn2 mutein H1-G1 (designed binder, carries a free Cys at position 36) QDSTSDLIPAPPLSKVPLQQNFQDNQFHGKWYVVGCAGNVLLREDKDPLKMYATIYELKEDKSYNVTSVGFDDKKCLYKIRTFVPGSQPGEFTLGRIKSEPGGTSWLVRVVSTNYNQHAMVFFKEVAQNRETFNITLYGRTKELTSELKENFIRFSKSLGLPENHIVFPVPIDQCIDG | – | – | – | – | – | – | – | – | 16.2 | no binding | 24.3 | 21.5 | 290 | 24.4 | – | – | – | – | – | –
Lcn2 mutein N10D (designed binder, also called NIOD; NI OD) QDSTSDLIPAPPLSKVPLQQNFQDNQFHGKWYVVGAAGNTWLREDKDPYKMQATIYELKEDKSYNVTNVLFMSKKCRYMIHTFVPGSQPGEFTLGSIKSWPGLTSWLVRVVSTNYNQHAMVFFKRVYQNREFFGITLYGRTKELTSELKENFIRFSKSLGLPENHIVFPVPIDQCIDG | – | – | – | 51.2 | 38 | 0.058 | 1.5e+06 | – | – | – | – | – | – | – | 0.064 | 621000 | 0.00335 | 29400 | no binding | no binding
Lcn2 mutein N7A (designed binder) QDSTSDLIPAPPLSKVPLQQNFQDNQFHGKWYVVGKAGNHDLREDKDPRKMQATIYELKEDKSYNVTNVRFVHKKCNYRIWTFVPGSQPGEFTLGNIKSWPGLTSWLVRVVSTNYNQHAMVFFKRVYQNRELFEITLYGRTKELTNELKENFIRFSKSLGLPENHIVFPVPIDQCIDG | 127 | 0.138 | 1.8e+06 | 14.8 | 5.8 | 0.026 | 4.6e+06 | 120 | – | – | – | – | – | – | – | – | – | – | no binding | no binding
